Data on one molecule can be found in PMC4405178 (Biochemistry, 2015).

Positions count from the first letter of the chain named.

Test in all cases: flow cytometry on cells
(In general: Flow cytometry measures light scatter and fluorescence of single cells or particles in a stream.)

One assay addresses T1, full-length Ste2p V49D (Saccharomyces cerevisiae, UniProt D6VTK4 1-431, V49D).
T1 sequence (looked up): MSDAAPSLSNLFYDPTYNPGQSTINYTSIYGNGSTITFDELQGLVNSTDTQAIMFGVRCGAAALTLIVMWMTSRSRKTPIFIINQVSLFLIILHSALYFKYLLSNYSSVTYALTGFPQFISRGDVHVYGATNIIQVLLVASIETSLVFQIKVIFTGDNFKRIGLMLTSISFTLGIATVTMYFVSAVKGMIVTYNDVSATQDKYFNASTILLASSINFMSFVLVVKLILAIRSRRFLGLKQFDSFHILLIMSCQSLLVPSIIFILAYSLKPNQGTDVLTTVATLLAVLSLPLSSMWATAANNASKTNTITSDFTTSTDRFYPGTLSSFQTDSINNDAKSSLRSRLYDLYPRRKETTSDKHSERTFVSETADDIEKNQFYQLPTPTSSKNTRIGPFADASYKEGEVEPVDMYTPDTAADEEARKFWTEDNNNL

In another assay the target is T2, full-length Ste2p S104Y (Saccharomyces cerevisiae, UniProt D6VTK4 1-431, S104Y).
T2 sequence (looked up): T1 sequence (looked up) with D49V, S104Y

The target in assay [1] is T3, full-length wild-type Ste2p (Saccharomyces cerevisiae, UniProt D6VTK4 1-431).
T3 sequence (looked up): T1 sequence (looked up) with D49V

Assay [2] deals with T4, C-terminally truncated Ste2p V49D (Saccharomyces cerevisiae, UniProt D6VTK4 1-303, V49D).
T4 sequence (looked up): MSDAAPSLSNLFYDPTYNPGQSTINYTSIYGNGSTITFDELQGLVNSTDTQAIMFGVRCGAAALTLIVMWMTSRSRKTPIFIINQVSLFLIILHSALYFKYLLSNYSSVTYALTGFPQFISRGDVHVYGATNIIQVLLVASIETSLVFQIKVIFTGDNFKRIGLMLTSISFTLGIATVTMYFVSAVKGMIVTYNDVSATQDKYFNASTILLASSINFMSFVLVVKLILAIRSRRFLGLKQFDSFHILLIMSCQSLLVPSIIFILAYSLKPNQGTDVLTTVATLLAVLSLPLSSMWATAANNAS

The target of a further assay is T5, full-length Ste2p H94Y (Saccharomyces cerevisiae, UniProt D6VTK4 1-431, H94Y).
T5 sequence (looked up): T1 sequence (looked up) with D49V, H94Y

B1: [K^7(NBD),Nle^12] α-factor (peptide)
chain: WHWLQLKPGQPMY
modifications: NBD (7-nitrobenz-2-oxa-1,3-diazol-4-yl) conjugated to the lysine at position 7; norleucine at position 12 in place of methionine
For the molecule B1, the Kd (in general, a measure of binding affinity in units of concentration) turned out to be 5.3 ± 2.3 nM in the assay with full-length Ste2p V49D; 2 ± 0.7 nM with full-length Ste2p S104Y; 7.3 ± 0.9 nM in assay [1]; 23 ± 3.3 nM in assay [2]; 5.2 ± 2.1 nM in the assay with full-length Ste2p H94Y.
